Target: BmOVO zinc-finger domain (BmOVO-2 C-terminal) (Bombyx mori, UniProt D3YIG7 629-806)
Assay: EMSA; 0.02 mg/ml protein, poly dI.dC; LightShift EMSA kit, 20 ul: 1x binding buffer, 1 ul each poly dI.dC, NP-40, KCl, glycerol; 0.75 pM probe; 20 min at room temperature; 6% polyacrylamide gel; pH
Settings: protein: recombinant; tags: 6xHis (pET28a); label: biotin (5' on both strands as printed); blunt

BmOVO zinc-finger domain (BmOVO-2 C-terminal), sequence (D3YIG7 entry or part of it): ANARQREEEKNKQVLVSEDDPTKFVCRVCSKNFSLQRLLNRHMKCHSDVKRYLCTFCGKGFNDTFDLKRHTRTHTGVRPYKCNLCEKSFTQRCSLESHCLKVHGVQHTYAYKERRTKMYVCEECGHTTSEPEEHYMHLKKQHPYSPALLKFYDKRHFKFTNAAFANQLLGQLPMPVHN

B1: otu-A (CE1) (dsDNA)
DNA 1: GCCCCTAAAATGTACCGTTGTAACTTCTGT
DNA 2: ACAGAAGTTACAACGGTACATTTTAGGGGC
binding result: binds

From PMC6503385, “Functional characterization of BmOVOs in silkworm, Bombyx mori”
